Test results from PMC5774706, “Investigation of the proton relay system operative in human cystosolic aminopeptidase P” (PLoS ONE, 2018).
Residue numbers refer to the chain shown, from its start. Numbers in names are those of the source.

B1: human cytosolic aminopeptidase P, wild-type (enzyme, UniProt Q9NQW7 1-623, looked up)
chain: MPPKVTSELLRQLRQAMRNSEYVTEPIQAYIIPSGDAHQSEYIAPCDCRRAFVSGFDGSAGTAIITEEHAAMWTDGRYFLQAAKQMDSNWTLMKMGLKDTPTQEDWLVSVLPEGSRVGVDPLIIPTDYWKKMAKVLRSAGHHLIPVKENLVDKIWTDRPERPCKPLLTLGLDYTGISWKDKVADLRLKMAERNVMWFVVTALDEIAWLFNLRGSDVEHNPVFFSYAIIGLETIMLFIDGDRIDAPSVKEHLLLDLGLEAEYRIQVHPYKSILSELKALCADLSPREKVWVSDKASYAVSETIPKDHRCCMPYTPICIAKAVKNSAESEGMRRAHIKDAVALCELFNWLEKEVPKGGVTEISAADKAEEFRRQQADFVDLSFPTISSTGPNGAIIHYAPVPETNRTLSLDEVYLIDSGAQYKDGTTDVTRTMHFGTPTAYEKECFTYVLKGHIAVSAAVFPTGTKGHLLDSFARSALWDSGLDYLHGTGHGVGSFLNVHEGPCGISYKTFSDEPLEAGMIVTDEPGYYEDGAFGIRIENVVLVVPVKTKYNFNNRGSLTFEPLTLVPIQTKMIDVDSLTDKECDWLNNYHLTCRDVIGKELQKQGRQEALEWLIRETQPISKQH
notes: human cytosolic aminopeptidase P (hcAMPP), encoded by XPNPEP1, residues M1 to H623, cloned into pET-28a (NdeI/HindIII); The His-tag is thrombin cleavable; also called hcAMPP; wild-type hcAMPP; source: E. coli Rosetta (DE3), purified (Ni2+ chelating column)
B2: human cytosolic aminopeptidase P, R535A mutant (enzyme, UniProt Q9NQW7 1-623, looked up)
chain: B1 chain with R535A
notes: human cytosolic aminopeptidase P (hcAMPP), encoded by XPNPEP1, residues M1 to H623, with R535A made by QuikChange mutagenesis of pET28a-hcAMPP; The His-tag is thrombin cleavable; no cleavage is described; also called R535A hcAMPP; Arg535Ala hcAMPP; source: E. coli Rosetta (DE3), purified (Ni2+ chelating column)
B3: human cytosolic aminopeptidase P, Y527F mutant (enzyme, UniProt Q9NQW7 1-623, looked up)
chain: B1 chain with Y527F
notes: human cytosolic aminopeptidase P (hcAMPP), encoded by XPNPEP1, residues M1 to H623, with Y527F made by QuikChange mutagenesis of pET28a-hcAMPP; The His-tag is thrombin cleavable; no cleavage is described; also called Y527F hcAMPP; Tyr527Phe hcAMPP; source: E. coli Rosetta (DE3), purified (Ni2+ chelating column)

Key:
[1] = target: the molecule itself; assay: AUC; sedimentation velocity, 40000 rpm, 20°C, 10 mM Tris-HCl, absorbance at 280 nm, c(s) by Sedfit; protein at 1 mg/mL; dimer to monomers
[2] = target: the molecule itself; assay: AUC; sedimentation velocity, 40000 rpm, 20°C, 10 mM Tris-HCl, absorbance at 280 nm, c(s) by Sedfit; protein at 0.1 mg/mL with 10 mM guanidine hydrochloride; dimer to monomers
[3] = target: the molecule itself; assay: AUC; sedimentation velocity, 40000 rpm, 20°C, 10 mM Tris-HCl, absorbance at 280 nm, c(s) by Sedfit; protein at 0.1 mg/mL; dimer to monomers

Protein	stoichiometry N [1]	dimer:monomer ratio (printed as monomer:dimer 1:1.5) [2]	dimer:monomer ratio (printed as monomer:dimer 1:0.67) [3]	dimer:monomer ratio [1]	dimer:monomer ratio [3]
B1	2				
B2	2	1.5	0.67		
B3	2			3.4	1.8
